Laboratory results as given in patent publication US8546083B2, “Molecular accessibility assay” (University of Vermont, priority 2007, dated 2013).

What was measured:
[1] = Fluorescence of DAPI binding to double stranded DNA; settings: 50 nM double stranded DNA, 100 nM DAPI, 10 mM Tris-HCl pH 8.0, 50 mM NaCl, 5 minutes room temperature
Procedure: (§1) For gel-based substrates, completed reactions were mixed with a dye-free SDS loading buffer (50 mM Tris-HCl (pH 6.8), 100 mM dithiothreitol, 4% SDS, 10% glycerol), heated to 90° C. for 5 minutes, separated by 12% SDS-PAGE, and visualized by PhosphorImager analysis (Bio-Rad Molecular Imager FX) (Bio-Rad Laboratories, Hercules, Calif.). For all other substrates, an equal volume of 200 nM DAPI in 10 mM Tris-HCl (pH 8.0) and 50 mM NaCl was added and incubated for 5 minutes at room temperature prior to fluorescence detection. Final concentrations of the fluorescence effecting molecules at the time of detection in these experiments were 100 nM DAPI, 50 nM substrate, and 25-800 nM enzyme.
(§2) Fluorescence readings were made on a Synergy HT Multi-Detection Microplate Reader (BIO-TEK) using a tungsten-halogen lamp and 360/40 bandpass excitation filter in conjunction with a 460/40 emission filter. Corning Half Area, NBS treated (Nonbinding Surface), Black, 96-well Microplates plates (Corning #3686) were used for all DAPI-based experiments. The combination of enzymes, DNA, and DAPI were all shown to contribute linearly to changes in the overall fluorescence based on the range of concentrations used; there was therefore no need to correct for the inner filter effect.
Each of the 4L, 5L, 5R, and N5R substrates, along with their non-damaged counterparts, were initially tested for their ability to associate with DAPI and thereby affect the detected fluorescence. […] In the absence of DNA, there was only a small increase in fluorescence from the addition of DAPI, as would be expected. The differences in fluorescence for each of the DAPI bound substrates are presumably due to both, sequence context and experimental variations in DNA concentration. For example, the 4L sequence is expected to have a lower total fluorescence due to the importance of the 3′ nucleotide following the 5′-AATT-3′ binding sequence in regards to fluorescence intensity (38). Due to the fact that the molecular accessibility assay is based on relative fluorescence, these differences are inconsequential.

4L substrate = experiment: DAPI molecular accessibility assay, active fraction determination, 4L substrate; type: biochemical; settings: for activity (100*α): 100 nM 4L substrate, 50 mM sodium borohydride; for active fraction / calculated α value: 4L sequence; for active fraction: NaBH4 and NaCNBH3
Procedure: (§3) Oligonucleotide substrates were purchased from Midland Certified Reagent Co. (Midland, Tex.) and were PAGE purified prior to use. All gel-based comparisons were performed with the following double stranded substrate: (35DHU) 5′-TET-tgtcaatagcaagnggagaagtcaatcgtgagtct-3′ (SEQ ID NO:1) where TET represents the fluorescent label 6-tetrachlorofluorescein and n=5,6-dihydrouracil (DHU). Molecular accessibility DAPI-based experiments were performed with the following double-stranded substrates: (4L) 5′-gccccgccaattnccgccgccgcc-3′ (SEQ ID NO:2), (5L) 5′-gccccgccaattcnccgccgccgcc-3′(SEQ ID NO:3), (5R) 5′-gccccgccgccccgccnaattccgccgccgcc-3′ (SEQ ID NO:4), and (N5R) 5′-gccccgccgccccgccncaattccgccgccgcc-3′ (SEQ ID NO:5) where n=either DHU for damaged substrates or cytosine for non-damaged controls. All complementary strands contained a G residue across from DHU (or across from the cytosine in controls—e.g. Watson-Crick base pairing) and were annealed in 50 mM Tris-HCl (pH 8.0), 50 mM NaCl by heating to 94° C. for 2 minutes and slowly cooling to 4° C. over the period of 1 hour in a Perkin Elmer DNA Thermal Cycler 480. In each case the ratio of damaged to complementary strand during annealing was 1:1.1. Note that the DAPI-based oligonucleotides all differ in location of the AT-rich region in relation to the damaged base.
(§4) EcoNth, EcoFpg, EcoNei, and NEIL1 were incubated for 30 minutes at 37° C. with 100 nM DHU:G-containing substrates at final concentrations of 50, 100, 200, 400, 800, 1200, or 1600 nM, in the presence of either 50 or 100 mM sodium borohydride (NaBH4) or sodium cyanoborohydride (NaCNBH3), as described in the Figures. Borohydride compounds were dissolved fresh for each independent experiment (one substrate and series of enzyme dilutions) as 1.25× stocks in Milli-Q water. Reactions were initiated by simultaneous addition of enzyme and borohydride solution to annealed substrates utilizing separate multi-pipettes in a 96-well format to a final volume of 100 μL. Except for EcoFpg trapping with sodium cyanoborohydride, the final buffer for each reaction contained 10 mM Tris-HCl (pH 8.0), 60 mM Na^+, and either 50 mM BH4^− or CNBH3^−. In the former case, the final buffer contained 10 mM Tris-HCl (pH 8.0), 110 mM Na^+, and 100 mM CNBH3^−.
as §1, §2
Given a sufficiently high concentration of trapping reagent, and a sufficiently long incubation time, the quantity of ES complex is related to the quantity of total enzyme added, ET, and total substrate added, ST, by the equation: ES=min(αET, βST) where α is the active enzyme fraction, P is the active substrate fraction (fraction cleavable), and min is the minimum function. […]

35DHU substrate = experiment: Gel-based Schiff base trapping assay (SDS-PAGE, PhosphorImager), active fraction determination; type: biochemical; settings: for α value (active enzyme fraction): 100 nM 35DHU; for active fraction: gel-based, from α values with NaBH4 and NaCNBH3
Procedure: as §3, §4, §1
Given a sufficiently high concentration of trapping reagent, and a sufficiently long incubation time, the quantity of ES complex is related to the quantity of total enzyme added, ET, and total substrate added, ST, by the equation: ES=min(αET, βST) where α is the active enzyme fraction, P is the active substrate fraction (fraction cleavable), and min is the minimum function. Furthermore, holding ST constant while varying ET can be depicted graphically (FIG. 1A) where the rising slope is equivalent to α, the plateau is equivalent to ST*β, and the breakpoint is defined by the relation: ST=(α/β)ET. Therefore, by varying ET from below to well above the constant ST concentration, the active enzyme fraction can be determined by linear regression of all points falling below the ET breakpoint concentration. The decision to include or exclude a given point pre-breakpoint is simply made so as to minimize the root-mean squared deviation from both the pre-breakpoint regression and the post-breakpoint best-fit line with a slope of zero. […]

N5R substrate = experiment: DAPI molecular accessibility assay, active fraction determination, N5R substrate; type: biochemical; settings: N5R sequence; for calculated α value: NaBH4 and NaCNBH3
Procedure: as §3
EcoNth, EcoFpg, EcoNei, and NEIL1 were incubated for 30 minutes at 37° C. with 100 nM DHU:G-containing substrates at final concentrations of 50, 100, 200, 400, 800, 1200, or 1600 nM, in the presence of either 50 or 100 mM sodium borohydride (NaBH4) or sodium cyanoborohydride (NaCNBH3), as described in the Figures. […]
as §1
as §2, with “Corning Half Area, NBS treated (Nonbinding Surface), Black, 96-well Microplates plates (Corning #3686) were used for all DAPI-based experiments.” left out, “effect. […]” for “effect.”

5L substrate = experiment: DAPI molecular accessibility assay, active fraction determination, 5L substrate; type: biochemical; settings: 5L sequence, NaBH4 and NaCNBH3
Procedure: (§5) Oligonucleotide substrates were purchased from Midland Certified Reagent Co. (Midland, Tex.) and were PAGE purified prior to use. All gel-based comparisons were performed with the following double stranded substrate: (35DHU) 5′-TET-tgtcaatagcaagnggagaagtcaatcgtgagtct-3′ (SEQ ID NO:1) where TET represents the fluorescent label 6-tetrachlorofluorescein and n=5,6-dihydrouracil (DHU). […]
as §1
(§6) Fluorescence readings were made on a Synergy HT Multi-Detection Microplate Reader (BIO-TEK) using a tungsten-halogen lamp and 360/40 bandpass excitation filter in conjunction with a 460/40 emission filter. […]

5R substrate = experiment: DAPI molecular accessibility assay, active fraction determination, 5R substrate; type: biochemical; settings: 5R sequence, NaBH4 and NaCNBH3
Procedure: as §5, §1, §6

[2] = NaCNBH3 (50 mM EcoNth, 100 mM EcoFpg), 30 minutes 37° C.
[3] = EcoNth range stated jointly for 4L, 5L, 5R

For “5′-gccccgccgccccgccncaattccgccgccgcc-3′ [N5R]”, the “FI (Fluorescence Intensity)” value [1] was 60.7 ± 3.0 x10^−3.

In the case of “5′-gccccgccgccccgccnaattccgccgccgcc-3′ [5R]”, the “FI (Fluorescence Intensity)” value [1] is reported as 69.5 ± 2.9 x10^−3.

With 5′-gccccgccaattnccgccgccgcc-3′ [4L] the “FI (Fluorescence Intensity)” value [1] was 55.2 ± 2.8 x10^−3.

In the case of “NEIL1: human ortholog of endonuclease VIII, recent purification with good activity”, the “activity (100*α)” value (4L substrate) is reported as “over 50%”.

With 5′-gccccgccaattcnccgccgccgcc-3′ [5L] the “FI (Fluorescence Intensity)” value [1] was 65.9 ± 2.6 x10^−3.

B1: EcoNth: Escherichia coli endonuclease III, purified recombinant enzyme preparation (protein, UniProt P0AB83 1-211, looked up)
Endonuclease III: MNKAKRLEILTRLRENNPHPTTELNFSSPFELLIAVLLSAQATDVSVNKATAKLYPVANTPAAMLELGVEGVKTYIKTIGLYNSKAENIIKTCRILLEQHNGEVPEDRAALEALPGVGRKTANVVLNTAFGWPTIAVDTHIFRVCNRTQFAPGKNVEQVEEKLLKVVPAEFKVDCHHWLILHGRYTCIARKPRCGSCIIEDLCEYKEKVDI
With B1 the “α value (active enzyme fraction)” value (35DHU substrate; 50 mM NaBH4, 30 minutes 37° C.) was 0.199, the “α value (active enzyme fraction)” value (35DHU substrate; [2]) was 0.206 and the active fraction (35DHU substrate) was “approximately 20%”. The active fraction (N5R substrate; NaBH4 (first value, figure order)) was “approximately 12%”, the “calculated α value” (N5R substrate) was “lower” and the active fraction (N5R substrate; NaCNBH3 (second value, figure order)) was roughly 16%. The active fraction (5L substrate) was 19-24% and the active fraction (4L substrate) was 19-24%.

B2: EcoFpg: Escherichia coli formamidopyrimidine-DNA glycosylase, purified recombinant enzyme preparation (protein, UniProt P05523 2-269, looked up)
Formamidopyrimidine-DNA …: PELPEVETSRRGIEPHLVGATILHAVVRNGRLRWPVSEEIYRLSDQPVLSVQRRAKYLLLELPEGWIIIHLGMSGSLRILPEELPPEKHDHVDLVMSNGKVLRYTDPRRFGAWLWTKELEGHNVLTHLGPEPLSDDFNGEYLHQKCAKKKTAIKPWLMDNKLVVGVGNIYASESLFAAGIHPDRLASSLSLAECELLARVIKAVLLRSIEQGGTTLKDFLQSDGKPGYFAQELQVYGRKGEPCRVCGTPIVATKHAQRATFYCRQCQK
For B2, the active fraction (5R substrate) was roughly 11%, the “calculated α value” (5R substrate; [3]) was “slightly lower” and the “α value (active enzyme fraction)” value (35DHU substrate; 50 mM NaBH4, 30 minutes 37° C.) was 0.121. The “α value (active enzyme fraction)” value (35DHU substrate; [2]) was 0.147, the active fraction (35DHU substrate) was “approximately 13%” and the “calculated α value” (N5R substrate) was “significantly lower”. For the same molecule, the “calculated α value” (5L substrate; [3]) was “significantly lower”, the “calculated α value” (4L substrate; 50 mM NaBH4) was 0.154 and the “calculated α value” (4L substrate; 100 mM NaCNBH3) was 0.136. The active fraction (4L substrate) was “approximately 14%”.

B3: EcoNei: Escherichia coli endonuclease VIII, purification known to have little activity (protein, UniProt P50465 2-263, looked up)
Endonuclease 8: PEGPEIRRAADNLEAAIKGKPLTDVWFAFPQLKPYQSQLIGQHVTHVETRGKALLTHFSNDLTLYSHNQLYGVWRVVDTGEEPQTTRVLRVKLQTADKTILLYSASDIEMLTPEQLTTHPFLQRVGPDVLDPNLTPEVVKERLLSPRFRNRQFAGLLLDQAFLAGLGNYLRVEILWQVGLTGNHKAKDLNAAQLDALAHALLEIPRFSYATRGQVDENKHHGALFRFKVFHRDGEPCERCGSIIEKTTLSSRPFYWCPGCQH
For B3, the “activity (100*α)” value (4L substrate) was “less than 5%”.
